Data from patent publication US20240116985A1 (published 2024).
Starred links: 1 amine or outer side, 2 acyl side, 3 side chain; linkers in the order of their positions; H or OH if unused. Positions of bridges follow the written chain, without caps; N, C: chain ends. Non-standard residues stand in square brackets, D forms with d. Primed or numbered codes have the meaning given here. (CH2CMe2CO2H)TriAzDap = (S)-3-(1-(2-amino-2-carboxyethyl)-1H-1,2,3-triazol-4-yl)-2,2-dimethylpropanoic acid, CC(C)(Cc1cn(C[C@H](N[*:1])C(=O)[*:2])nn1)C(=O)[*:3]; PyrS2″ = (S)-3-amino-1-((pent-4-en-1-yloxy)carbonyl)pyrrolidine-3-carboxylic acid (stapling residue), C=CCCCOC(=O)N1CC[C@@](N[*:1])(C(=O)[*:2])C1; (2COOHPh)TriAzDap = (S)-2-(1-(2-amino-2-carboxyethyl)-1H-1,2,3-triazol-4-yl)benzoic acid, O=C([C@H](Cn1cc(-c2ccccc2C(=O)[*:3])nn1)N[*:1])[*:2]; (CH2CH2CO2H)TriAzDab = (S)-2-amino-4-(4-(2-carboxyethyl)-1H-1,2,3-triazol-1-yl)butanoic acid, O=C([C@H](CCn1cc(CCC(=O)[*:3])nn1)N[*:1])[*:2]; (CH2CO2H)TriAzDab = (S)-2-amino-4-(4-(carboxymethyl)-1H-1,2,3-triazol-1-yl)butanoic acid, O=C([C@H](CCn1cc(CC(=O)[*:3])nn1)N[*:1])[*:2]; (CH2CO2H)TriAzDap = (S)-2-amino-3-(4-(carboxymethyl)-1H-1,2,3-triazol-1-yl)propanoic acid, O=C([C@H](Cn1cc(CC(=O)[*:3])nn1)N[*:1])[*:2]; B5(4) = 2,2-bis(4-pentenyl)glycine = 2-amino-2-(pent-4-en-1-yl)hept-6-enoic acid (stitching residue), C=CCCCC(CCCC=C)(N[*:1])C(=O)[*:2]; (2COOH4NH2Ph)Dap = (S)-5-amino-2-((2-amino-2-carboxyethyl)amino)benzoic acid, Nc1ccc(NC[C@H](N[*:1])C(=O)[*:2])c(C(=O)[*:3])c1; B5(9) = 2-amino-2-(pent-4-en-1-yl)hept-6-enoic acid (2,2-bis(4-pentenyl)glycine), C=CCCCC(CCCC=C)(N[*:1])C(=O)[*:2]; (2COOHPh)TriAzDab = O=C([C@H](CCn1cc(-c2ccccc2C(=O)[*:3])nn1)N[*:1])[*:2]; Phe(3-COOH) = N[C@@H](Cc1cccc(C(=O)O)c1)C(=O)O; 2F3MeF = Cc1cccc(C[C@H](N[*:1])C(=O)[*:2])c1F; Phe(2-CF3) = N[C@@H](Cc1ccccc1C(F)(F)F)C(=O)O; βAsp = O=C(O)[C@H](CC(=O)[*:2])N[*:1]; Bta = N[C@@H](Cc1csc2ccccc12)C(=O)O; αAllylPro = C=CC[C@@]1(C(=O)O)CCCN1; tBuAla = CC(C)(C)C[C@H](N)C(=O)O; 3Thi = N[C@@H](Cc1ccsc1)C(=O)O; S8 = C=CCCCCCC[C@](C)(N)C(=O)O; PyrS2(4) = not defined here

T1: Bcat-Halo (UniProt P35222 1-781)
T1 sequence (looked up): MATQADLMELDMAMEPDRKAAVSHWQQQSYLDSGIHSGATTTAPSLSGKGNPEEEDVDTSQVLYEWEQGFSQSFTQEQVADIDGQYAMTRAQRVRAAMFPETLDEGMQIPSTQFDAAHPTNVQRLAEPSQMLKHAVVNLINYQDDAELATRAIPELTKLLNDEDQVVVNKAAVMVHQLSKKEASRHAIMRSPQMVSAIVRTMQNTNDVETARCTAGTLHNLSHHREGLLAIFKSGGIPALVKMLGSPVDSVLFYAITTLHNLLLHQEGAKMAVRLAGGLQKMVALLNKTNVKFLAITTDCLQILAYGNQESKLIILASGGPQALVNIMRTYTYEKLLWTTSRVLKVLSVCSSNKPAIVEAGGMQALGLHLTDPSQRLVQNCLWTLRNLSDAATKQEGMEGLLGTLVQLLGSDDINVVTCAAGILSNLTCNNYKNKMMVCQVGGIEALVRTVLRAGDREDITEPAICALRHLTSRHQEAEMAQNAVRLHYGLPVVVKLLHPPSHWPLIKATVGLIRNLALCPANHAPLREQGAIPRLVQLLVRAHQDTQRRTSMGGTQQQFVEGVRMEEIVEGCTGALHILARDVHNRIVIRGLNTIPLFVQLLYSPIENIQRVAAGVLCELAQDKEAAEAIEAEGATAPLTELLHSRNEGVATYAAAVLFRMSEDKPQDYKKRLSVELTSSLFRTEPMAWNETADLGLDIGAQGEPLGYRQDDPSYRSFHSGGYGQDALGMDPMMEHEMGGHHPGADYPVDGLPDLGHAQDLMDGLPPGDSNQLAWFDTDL

T2: B-cat-Halo (beta-catenin HaloTag construct expressed in HEK293 cells) (UniProt P35222 1-781)
T2 sequence (looked up): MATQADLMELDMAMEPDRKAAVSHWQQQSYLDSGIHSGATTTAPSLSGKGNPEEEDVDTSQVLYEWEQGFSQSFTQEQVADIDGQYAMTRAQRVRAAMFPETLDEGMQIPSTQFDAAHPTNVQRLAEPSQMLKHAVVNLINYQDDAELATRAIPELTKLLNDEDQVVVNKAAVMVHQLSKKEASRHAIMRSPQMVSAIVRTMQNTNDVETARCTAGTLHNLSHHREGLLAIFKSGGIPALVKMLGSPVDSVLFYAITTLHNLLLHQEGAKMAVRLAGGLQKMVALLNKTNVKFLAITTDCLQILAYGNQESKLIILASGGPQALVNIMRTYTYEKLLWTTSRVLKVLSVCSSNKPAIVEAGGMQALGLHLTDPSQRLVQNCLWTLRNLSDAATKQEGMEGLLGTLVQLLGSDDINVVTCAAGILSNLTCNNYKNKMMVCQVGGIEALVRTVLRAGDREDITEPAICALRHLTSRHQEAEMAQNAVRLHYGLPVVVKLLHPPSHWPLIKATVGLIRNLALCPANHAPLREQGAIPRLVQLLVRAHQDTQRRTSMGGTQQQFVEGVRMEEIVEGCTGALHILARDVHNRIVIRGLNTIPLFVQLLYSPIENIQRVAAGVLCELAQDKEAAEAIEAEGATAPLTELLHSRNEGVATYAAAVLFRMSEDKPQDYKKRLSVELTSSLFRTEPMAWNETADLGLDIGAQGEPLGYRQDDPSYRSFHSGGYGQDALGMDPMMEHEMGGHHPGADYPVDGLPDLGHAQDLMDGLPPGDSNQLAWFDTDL

T3: full-length beta-Catenin (Uniprot ID P35222) (Homo sapiens (Human), UniProt P35222 2-781)
T3 construct: 'mature' is the nearest allowed form; also called bCat; B-Catenin
T3 sequence: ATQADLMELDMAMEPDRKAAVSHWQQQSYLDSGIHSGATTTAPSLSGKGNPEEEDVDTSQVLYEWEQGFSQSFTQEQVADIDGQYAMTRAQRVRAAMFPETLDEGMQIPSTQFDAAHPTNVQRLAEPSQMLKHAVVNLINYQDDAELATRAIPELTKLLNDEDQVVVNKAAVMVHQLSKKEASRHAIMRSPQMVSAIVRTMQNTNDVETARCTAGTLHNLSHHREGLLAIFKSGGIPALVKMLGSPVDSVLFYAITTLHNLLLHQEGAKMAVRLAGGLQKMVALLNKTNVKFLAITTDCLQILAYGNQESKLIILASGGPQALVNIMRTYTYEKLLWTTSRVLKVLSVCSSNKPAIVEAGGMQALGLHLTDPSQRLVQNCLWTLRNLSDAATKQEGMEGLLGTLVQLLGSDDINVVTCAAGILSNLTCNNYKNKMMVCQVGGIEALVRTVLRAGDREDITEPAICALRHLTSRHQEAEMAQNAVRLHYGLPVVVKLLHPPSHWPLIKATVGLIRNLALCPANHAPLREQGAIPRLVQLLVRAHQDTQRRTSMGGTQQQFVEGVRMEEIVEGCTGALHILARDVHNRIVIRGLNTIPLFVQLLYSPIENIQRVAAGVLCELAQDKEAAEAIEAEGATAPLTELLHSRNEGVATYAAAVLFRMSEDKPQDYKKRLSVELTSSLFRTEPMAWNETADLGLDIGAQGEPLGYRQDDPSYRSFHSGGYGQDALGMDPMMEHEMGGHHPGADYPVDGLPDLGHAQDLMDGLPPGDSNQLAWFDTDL


Key:
Bcat-Halo = target: T1, Bcat-Halo; experiment: cell-based or functional assay
[1] = target: T2, B-cat-Halo (beta-catenin HaloTag …); experiment: cell-based or functional assay
[2] = target: T3, full-length beta-Catenin (Uniprot ID …); experiment: fluorescence polarization competition, full-length beta-catenin with 5FAM-TCF4(10-53) probe as competitor
Experimental: The plate was incubated protected from light for 60 minutes at 20° C. prior to read. Reads were performed on a CLARIOstar plate reader (BMG Labtech) in duplicate, and data were fitted to a 1:1 binding model with hill slope using an in-house script. All provided concentrations are final concentrations.

| Binder | NanoBRET Abs IC50 (Bcat-Halo) [µM] | also measured |
| --- | --- | --- |
| Ac-[αAllylPro]D[tBuAla][B5(4)]D[(2COOHPh)TriAzDab]AAFL[PyrS2″][3Thi][Bta]Q-NH2 (staple 1-4, 4-11; not fully specified) [I-2080] | 28.8 | – |
| Ac-[αAllylPro]D[tBuAla][B5(4)]D[(2COOHPh)TriAzDab]AAFL[PyrS2(4)][3Thi][Bta]Q-NH2 (staple 1-4, 4-11; not fully specified; reading uncertain) [I-2081] | 11.6 | – |
| Ac-[αAllylPro]D[tBuAla][B5(4)]D[Phe(3-COOH)]SAFL[PyrS2″][Phe(2-CF3)][Bta]A-NH2 (staple 1-4, 4-11) [I-2059] | – | NanoBRET Abs IC50 [1]: 4.8 µM |
| Ac-[αAllylPro]DI[B5(9)][βAsp]EAAFQ[S8]F[Bta]Q-NH2 (staple 1-4, 4-11, Stapled peptide composition) [I-673] | – | EC50 [2]: 5 µM |
| Ac-[αAllylPro]D[tBuAla][B5(4)]D[(2COOH4NH2Ph)Dap]AAFL[PyrS2″][3Thi][Bta]Q-NH2 (staple 1-4, 4-11) [I-2087] | 6.5 | – |
| Ac-[αAllylPro]D[tBuAla][B5(4)]D[Phe(3-COOH)]AAFL[PyrS2″][3Thi][Bta][dQ]-NH2 (staple 1-4, 4-11) [I-2088] | 4.4 | – |
| Ac-[αAllylPro]D[tBuAla][B5(4)]D[(CH2CO2H)TriAzDab]AAFL[PyrS2″][3Thi][Bta]Q-NH2 (staple 1-4, 4-11) [I-2078] | 11.7 | – |
| Ac-[αAllylPro]D[tBuAla][B5(4)]D[Phe(3-COOH)]AAFF[PyrS2″][2F3MeF][Bta][dA]-NH2 (staple 1-4, 4-11) [I-2095] | 10.5 | – |
| Ac-[αAllylPro]D[tBuAla][B5(4)]D[(CH2CH2CO2H)TriAzDab]AAFL[PyrS2″][3Thi][Bta]Q-NH2 (staple 1-4, 4-11) [I-2076] | 14.1 | – |
| Ac-[αAllylPro]D[tBuAla][B5(4)]D[(CH2CMe2CO2H)TriAzDap]AAFL[PyrS2″][3Thi][Bta]Q-NH2 (staple 1-4, 4-11) [I-2083] | 3.7 | – |
| Ac-[αAllylPro]D[tBuAla][B5(4)]D[Phe(3-COOH)]AAFF[PyrS2″][3Thi][Bta][dQ]-NH2 (staple 1-4, 4-11) [I-2092] | 4.4 | – |
| Ac-[αAllylPro]D[tBuAla][B5(4)]D[Phe(3-COOH)]AAFL[PyrS2″][Phe(2-CF3)][Bta][dA]-NH2 (staple 1-4, 4-11) [I-2091] | 6.2 | – |
| Ac-[αAllylPro]D[tBuAla][B5(4)]D[(2COOHPh)TriAzDap]AAFL[PyrS2″][3Thi][Bta]Q-NH2 (staple 1-4, 4-11) [I-2086] | 16.4 | – |
| Ac-[αAllylPro]D[tBuAla][B5(4)]D[(CH2CO2H)TriAzDap]AAFL[PyrS2″][3Thi][Bta]Q-NH2 (staple 1-4, 4-11) [I-2084] | 9.2 | – |
